Experimental data from patent US20100239568A1, “DIAGNOSTICS AND TREATMENTS FOR TUMORS” (GENENTECH, INC., priority 2006, published 2010).

How the values were obtained:
[1] = system: HUVEC cells; test: HUVEC proliferation assay; assay type: cell-based, human; settings: found in high salt fraction of EL4 and L1210 tumor lysates
Experimental: HUVEC proliferation assay: HUVEC at passage less than 8 were used in the study. Day 1: 3000 cells/well (96-well plate) were plated onto 1% gelatin-coated plate in the assay media (DMEM:F12 50:50) with 1.5% FBS. Day 2: Media was changed and cells were treated with various growth factors or conditioned media. Day 3: ^3H-thymidine was added at 0.5 μCi/well. Day 4: 250 mM EDTA/well was added to stop the reaction in the morning. Cells were harvested onto 96-well filter plate and washed with water 3 times. ^3H samples were counted with TOPCOUNT liquid scintillation counter.

[2] = system: monocytes; test: Monocyte migration assay; assay type: cell-based, human; settings: found in high salt fraction of EL4 and L1210 tumor lysates
Experimental: Monocyte migration assay: Step 1: isolation of monocyte from human PBMC. Blood was diluted with PBS 1:1 (v/v). The diluted blood was slowly added on top of Ficoll and centrifuged at 3000 rpm for 15 min at room temperature (RT) without break. Plasma was removed and white cells were collected (9˜5 ml interphase). Cells were washed in migration buffer containing PBS with 0.5% BSA (low in endotoxin), spun at 1850 rpm (9˜800 g) for 10 min at RT and cells were counted. Step 2: Magnetic labeling of cells. Cell pellet was resuspended in MACS buffer containing PBS with 0.5% BSA (low in endotoxin) and 2 mM EDTA, 30 μl per 10^7 cells. FcR blocking reagent and Biotin-antibody cocktails were added and mixed well. The cells were then incubated for 10 min at 4° C. after which 30 μl more MACS buffer per 10^7 cells was added and anti-biotin Microbeads was added. This was mixed well and incubated for 10 min at 4° C. Cells were washed with MACS buffer by adding 10-20 fold more of the labeling volume, spun at 300g (1250 rpm) for 10 min. Cells were resuspended in up to 10^8 cells in 2 ml buffer. Step 3: Magnetic separation with LS columns. LS column (Miltenyi Biotec) was placed in the magnetic field holder. Column was rinsed with MACS buffer. Cell suspension was applied to the column. Unlabelled flow was collected, which represents enriched monocyte fraction. […]

B1: bFGF: growth factor found in the high salt fraction of resistant tumor lysates (protein, UniProt P15655 10-154, looked up)
Fibroblast growth factor 2: PALPEDGGAAFPPGHFKDPKRLYCKNGGFFLRIHPDGRVDGVREKSDPHVKLQLQAEERGVVSIKGVCANRYLAMKEDGRLLASKCVTEECFFFERLESNNYNTYRSRKYSSWYVALKRTGQYKLGSKTGPGQKAILFLPMSAKS
[1]
  proliferation of HUVEC cells: contribute to the proliferation of HUVEC cells
[2]
  chemotactic activity: not chemotactic activity
